Consider six molecules from patent US20160229919A1 (US Dept. of Health and Human Services, published 2016).

Experiment [1] concerns the target cell-surface mesothelin on mesothelin-expressing cells (human) (UniProt Q13421). Briefly: flow cytometry on H9 cells. A general note: A flow cytometer gives signals particle by particle.
Experiment [2] shares this target. Briefly: flow cytometry on NCI-H322M cells.
Experiment [3] shares this target. Briefly: flow cytometry on L55 cells.
Experiment [4] shares this target. Briefly: flow cytometry on KMBC cells.
Experiment [5] shares this target. Briefly: flow cytometry on NCI-H226 cells.
For experiment [6] the target is unchanged. Briefly: flow cytometry on YOU cells.
For experiment [7] the target is unchanged. Briefly: flow cytometry on Mz-Cha-1 cells.
The target is the same in experiment [8]. Briefly: flow cytometry on OVCAR8 cells.
Experiment [9] has the same target. Briefly: cell-based or functional assay.
Experiment [10] shares this target. Briefly: flow cytometry on NCI-ADR-RES cells.
For experiment [11] the target is unchanged. Briefly: flow cytometry on KMCH cells.
Experiment [12] has the same target. Briefly: flow cytometry on H9 cells. This is another data set of the same source.
Experiment [13] has the same target. Briefly: flow cytometry on M30 cells.
Experiment [14] shares this target. Briefly: flow cytometry on EKVX cells.
The target of experiment [15] is human transferrin receptor (human) (UniProt P02786). Briefly: flow cytometry on NCI-H322M cells.
Sequence of human transferrin receptor (human) (P02786 whole entry): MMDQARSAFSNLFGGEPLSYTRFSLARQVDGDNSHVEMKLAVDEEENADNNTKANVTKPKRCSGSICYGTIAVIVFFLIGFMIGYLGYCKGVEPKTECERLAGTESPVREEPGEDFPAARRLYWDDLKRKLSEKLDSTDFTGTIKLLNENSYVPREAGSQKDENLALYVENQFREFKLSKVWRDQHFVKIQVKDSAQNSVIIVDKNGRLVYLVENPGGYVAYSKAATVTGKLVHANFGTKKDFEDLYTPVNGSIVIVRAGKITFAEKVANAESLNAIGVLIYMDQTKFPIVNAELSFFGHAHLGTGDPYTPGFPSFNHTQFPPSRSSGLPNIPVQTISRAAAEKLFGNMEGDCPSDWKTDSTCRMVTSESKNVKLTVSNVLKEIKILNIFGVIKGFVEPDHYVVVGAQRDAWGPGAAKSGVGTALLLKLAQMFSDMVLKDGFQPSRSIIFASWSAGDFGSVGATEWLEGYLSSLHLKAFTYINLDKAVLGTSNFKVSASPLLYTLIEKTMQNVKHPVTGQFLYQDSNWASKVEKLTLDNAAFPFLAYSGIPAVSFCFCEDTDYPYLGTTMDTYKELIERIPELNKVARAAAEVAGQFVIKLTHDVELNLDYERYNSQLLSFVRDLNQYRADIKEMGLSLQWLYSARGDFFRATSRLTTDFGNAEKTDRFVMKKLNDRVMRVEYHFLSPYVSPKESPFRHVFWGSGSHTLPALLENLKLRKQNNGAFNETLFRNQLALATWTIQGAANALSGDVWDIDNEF
Experiment [16] has the same target. Briefly: flow cytometry on L55 cells.
Experiment [17] shares this target. Briefly: flow cytometry on YOU cells.
Experiment [18] has the same target. Briefly: cell-based or functional assay.
The target is the same in experiment [19]. Briefly: flow cytometry on EKVX cells.
The target in experiment [20] is recombinant mesothelin protein (full-length mesothelin) (human) (UniProt Q13421). Briefly: ELISA, mAb titrated on mesothelin (1 ug/ml), fit with Prism. For orientation: An ELISA detects its analyte on a solid surface through an enzyme-linked reagent.
Experiment [21] addresses mesothelin-Fc fusion protein (human) (UniProt Q13421). Briefly: sandwich ELISA: YP223 capture, mesothelin-Fc titrated, biotinylated YP218 detection.
Experiment [22] deals with mesothelin Region I fragment (residues 296-390) (human, UniProt Q13421 296-390). Briefly: ELISA on mesothelin fragments.
Sequence of mesothelin Region I fragment (residues 296-390) (Q13421 296-390): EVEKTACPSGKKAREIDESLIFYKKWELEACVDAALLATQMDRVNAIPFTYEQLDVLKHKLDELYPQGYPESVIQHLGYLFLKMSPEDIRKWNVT

Usually Kd stands for a measure of binding affinity in units of concentration. SS1P immunotoxin: in [1], the equilibrium dissociation constant (Kd) turned out to be 1.3 nM. The Kd in experiment [2] was found to be 0.44 nM. In [3], the Kd worked out at 1.04 nM. The dissociation constant (Kd) in [4] was found to be 2.15 nM. In experiment [5], this molecule registered a Kd of 1.49 nM. This molecule returned a Kd in experiment [6] of 1.48 nM. The molecule also displayed a Kd in experiment [7] of 1.3 nM. Further, in experiment [8], the Kd is 0.6 nM. In addition, in experiment [9], the IC50 (ng ml^-1), cytotoxicity on EKVX cells was 55.4 ng/mL; the IC50 (ng ml^-1), cytotoxicity on H9 cells amounted to 0.076 ng/mL; the IC50 (ng ml^-1), cytotoxicity on H226-GL cells was 1.99 ng/mL; the IC50 (ng ml^-1), cytotoxicity on KMBC cells was found to be 3.39 ng/mL. In [9], this molecule came in with an IC50 (ng ml^-1), cytotoxicity on KMCH cells of 7.23 ng/mL; an IC50 (ng ml^-1), cytotoxicity on L55 cells of 5.89 ng/mL; an IC50 (ng ml^-1), cytotoxicity on M30 cells of 7.13 ng/mL; an IC50 (ng ml^-1), cytotoxicity on Mz-Cha-1 cells of 21.6 ng/mL. Moreover, in experiment [9], the IC50 (ng ml^-1), cytotoxicity on NCI-ADR-RES cells came out at 1.2 ng/mL; the IC50 (ng ml^-1), cytotoxicity on NCI-H226 cells was found to be 5.29 ng/mL; the IC50 (ng ml^-1), cytotoxicity on NCI-H322M cells turned out to be 4.02 ng/mL; the IC50 (ng ml^-1), cytotoxicity on OVCAR8 cells stood at 1.82 ng/mL. In [9], this molecule displayed an IC50 (ng ml^-1), cytotoxicity on YOU cells of 13 ng/mL; an IC50 (ng/ml), cytotoxicity on RH16 mesothelioma patient primary cells of 10.4 ng/mL; an IC50 (ng/ml), cytotoxicity on RH18 mesothelioma patient primary cells of more than 100 ng/mL; an IC50 (ng/ml), cytotoxicity on RH19 mesothelioma patient primary cells of 0.63 ng/mL. For the same molecule, in [9], the IC50 (ng/ml), cytotoxicity on RH21 mesothelioma patient primary cells worked out at 0.73 ng/mL. For the same molecule, the Kd in experiment [10] is 1.41 nM. Also, the Kd in experiment [11] came out at 1.26 nM. In experiment [12], the Kd was 4.82 nM. The same molecule showed a dissociation constant (Kd) in [13] of 0.49 nM. In addition, in experiment [14], the Kd came out at 1.7 nM.

In [15], HB21-PE40 immunotoxin came in with a Kd of 6.05 nM. This molecule also returned a Kd in experiment [16] of 9.74 nM. Moreover, the Kd in [17] worked out at 24.7 nM. For the same molecule, in experiment [18], the IC50 (ng ml^-1), cytotoxicity on EKVX cells turned out to be 0.21 ng/mL; the IC50 (ng ml^-1), cytotoxicity on H226-GL cells stood at 0.22 ng/mL; the IC50 (ng ml^-1), cytotoxicity on L55 cells was determined as 0.57 ng/mL; the IC50 (ng ml^-1), cytotoxicity on M30 cells was determined as 0.51 ng/mL. Besides, in experiment [18], the IC50 (ng ml^-1), cytotoxicity on NCI-ADR-RES cells amounted to 0.12 ng/mL and the IC50 (ng ml^-1), cytotoxicity on NCI-H322M cells was determined as 0.31 ng/mL. Also, the Kd in experiment [19] amounted to 6.28 nM.

B1: YP223 rabbit monoclonal antibody (antibody, V domains shown)
VH: QEQLEESGGDLVQPEGSLTLTCKASGLDFSSSYWICWVRQAPGKGLEWIGCRHTFTANTWSASWVNGRFTISRSTSLGTVDLKMTSLTAADTATYFCARDESNNDGWDFKLWGPGTLVTVSS
VL: AYDMTQTPASVSAAVGGTVTIKCQASQSISNYLAWYQQKPGQPPKLLIYQASTLAPGVSSRFKGSGSGTEFTLTISGVECADAATYYCQQGYTSSNVENVFGGGTGVVV
The term EC50 denotes the concentration needed to bring the measured effect to its halfway point. In the case of B1, in experiment [20], the Kd turned out to be 0.65 nM. The molecule further yielded a concentration for a half-maximal effect (EC50) in experiment [21] of 0.5 nM.

B2: YP158 rabbit monoclonal antibody (antibody, V domains shown)
VH: QSLEESGGDLVKPGASLTLTCTASGFSFSGDYYMCWVRQAPGKGLEWIACIGGGSNTATYYATWAKGRFTISKTSSTTVTLQMTSLTAADTATYFCARDLGFVDYALELWGPGTLVTVSS
VL: DIVMTQTPASVEVAVGGTVTIKCQASENMYNSLAWYQQKPGQPPKLLIYRASTLESGVPSRFKGSGSGTEYTLTISDLECADAATYYCQCTFYSHNNNYGGAFGGGTEVVV
notes: Rabbit hybridoma mAb (rabbit IgG)
As to B2, in experiment [22], the binding result is recorded as “binds”.

B3: YP3 rabbit monoclonal antibody (antibody, V domains shown)
VH: QEQLVESGGGLVQPGASLTLTCTASGIDFSRYYMCWVRQAPGKGLEGIACIYIGGSGSTYYASWAKGRFTISKASSTTVTLQMTSLTAADTATYFCARGTNLNYIFRLWGPGTLVTVSS
VL: DVVMTQTPSPVSAAVGGTVTIKCQASQSINNGLAWYQQKPGQPPRLLIYSASNLESGVPSRFKGSGSGTEFTLTISDLECDDAATYYCQCIWDGNSYVNAFGGGTEVVV
For B3, the equilibrium dissociation constant (Kd) in experiment [20] was 0.42 nM.

B4: YP218 rabbit monoclonal antibody (antibody, V domains shown)
VH: QQQLEESGGGLVKPEGSLTLTCKASGFDLGFYFYACWVRQAPGKGLEWIACIYTAGSGSTYYASWAKGRFTISKASSTTVTLQMTSLAAADTATYFCARSTANTRSTYYLNLWGPGTLVTVSS
VL: DVVMTQTPASVSEPVGGTVTIKCQASQRISSYLSWYQQKPGQRPKLLIFGASTLASGVPSRFKGSGSGTEYTLTISDLECADAATYYCQSYAYFDSNNWHAFGGGTEVVV
As to B4, in experiment [20], the Kd is 0.91 nM.
